Earlier results on 2 substances are cited in publication PMC9074927.

The target of series [1] is histone H3 (Homo sapiens) (UniProt P68431).
Series [2] has the same target. The source holds these as a separate data set.

Where two headings read alike, the source gives them in different places.

What is called Kd is the equilibrium constant for the complex coming apart. In the case of CBX1 chromodomain (from UniProt P83916), in series [1], the dissociation constant Kd was 0.6 µM.

With “CBX1 eReader chromodomain (from UniProt P83916)”, in series [2], the Kd is 0.13 µM.
